Numbering of substitutions follows the chain as printed. Entries after “also recorded” stand apart in the source; their conditions may differ.
B1: Q69N (protein)
chain: KAPKTQPYNPCKPQEVIDTKCMGPKDCLYPNPDSCTTYINCVPLDEVGNAKPVVKPCPKGLQWNDNVGKKWCDYPNLSTCPVKTPQ
modifications: left off: 6x His (two), N-terminal, state not stated
B2: K84A (protein)
chain: B1 chain with N40Q, K55A
modifications: left off: 6x His (two), N-terminal, state not stated
B3: W100A (protein)
chain: B1 chain with N40Q, W71A
modifications: left off: 6x His (two), N-terminal, state not stated

Tests used:
Cf-4 immune receptor = test: Pure protein infiltrations into tomato leaves of cv Purdue 135 (+ Cf-4), hypersensitive response; assay type: in vivo; conditions: 5 dpi
Text: Tomato seeds were obtained from the Tomato Genetic Resource Center (TGRC) at UC Davis. WT-CfAvr4 and mutants thereof with single point mutations at selected amino acids were produced and purified from E. coli Rosetta-gami B cells as description above. […]

[1] = tested on: germlings of Trichoderma viride; test: In vitro protection assay of T. viride germlings against chitinases; assay type: cell-based; conditions: 5 μM protein with chitinases and β-1,3-glucanases; for protection of fungal hyphae against chitinases, fungal growth: 6–8 h
Description: The ability of the WT-CfAvr4 and of ChBD mutants to protect against chitinases was evaluated in in vitro protection assays conducted as described before. Briefly, spores of T. viride (3∙10^3) were pre-germinated overnight at room temperature in 100 μl of half-strength PDB medium in 96 well plates. The following day, 5 μM of WT-CfAvr4 or ChBD mutants were mixed with 7.5 units of Zymolyase (Zymo Research cat. no. E1004) and 0.2 units of bacterial chitinases (Sigma-Aldrich cat. no. C6137) and the mixture was added to the microtitre plate wells containing the pre-germinated spores in a final volume of 150 μl. Plates were incubated at 25°C for 6–8 h before evaluating under the microscope fungal growth and the ability of the proteins to provide protection against chitinases. Zymolase has β-1,3 glucanase and β-1,3-glucan laminaripentaohydrolase activity and is added to the mixture in order to remove the surface glucans from the fungal cell wall and thus expose the underlying chitin layer.

subtilisin = test: Subtilisin treatment (resistance against proteolytic degradation); assay type: in vitro ADME; design: key to Stability (Subtilisin assay): S: stable; PU: partially unstable; conditions: for Stability (Subtilisin assay): 500 ng/μL subtilisin, 30 min, room temperature; for susceptibility to proteolytic degradation by subtilisin: 500 ng/μl subtilisin, band of mature CfAvr4 on SDS-PAGE
Description: The WT-CfAvr4 and selected mutants thereof were exposed to the non-specific protease subtilisin in order to determine their resistance against proteolytic degradation. Treatments with subtilisin were made as previously described with minor modifications. Briefly, 40 μM of the E. coli-produced CfAvr4 and the selected CfAvr4 mutants were mixed with 10 mM of calcium chloride and 500 ng/μL of subtilisin (Sigma-Aldrich) in a total volume of 15 μL. Samples were incubated for 30 min at room temperature, after which period they were denatured by mixing with 10 mM PMSF and SDS-PAGE loading buffer, and heating at 98°C for 10 min. Digestion products were visualized on an SDS-PAGE after staining with Coomassie blue.

[2] = Isothermal titration calorimetry (ITC) of CfAvr4 variants with chitin hexasaccharide; assay type: binding; conditions: ITC; for increase in the Kd relative to WT-CfAvr4: (GlcNAc)6
Description: A stock solution of the monomer of N-acetylglucosamine was prepared by dissolving the dry powder in a buffer containing 10 mM Bis-Tris, pH 6.5, 100 mM NaCl to a concentration of 0.100 g/L using analytic techniques. Standard solution of 0, 0.010, 0.025, 0.050, 0.075 g/L were prepared by serial dilutions. Using glass test tubes and pipets, 100 μL of each standard was mixed with 300μL of concentrated sulfuric acid and vortexed for 10 sec to mix. Solutions were incubated at RT for 10 min and then placed on ice to stop the reaction. […] Analytically prepared solution of the di- and tri-saccharide scaled linearly to the calibration curve. To determine the concentration of the chitin hexasaccharide solutions used in ITC, the solutions were diluted into the dynamic range of the calibration curve (S12 Fig) and subjected to the above procedure.
All ITC experiments were performed on a TA Instruments low volume NanoITC with a 186uL reaction cell and a reference cell filled with degassed Milli-Q grade water. Reactions were run in a buffer containing 10mM Bis-Tris, pH 6.5, 100 mM NaCl. The reservoir solution was filled with protein solution and continuously stirred while Chitin hexasaccharide solutions titrated in 2.5μL aliquots for 19 injections, with an initial 1μL injection, for a total injection volume of 48.5μL. The carbohydrate solutions were made by dissolving the dry powder in buffer to a concentration of 20mM (confirmed using methods described above) and then diluted to the working concentration using the final buffer exchange flow through to match the buffers as closely as possible. The integrated heats, after correction for the heat of dilution were analyzed using the NanoAnalyze software from […]. An individual binding site model was used to fit the binding isotherm. All experiments were replicated a minimum of three times.

Cf-4 = test: Agrobacterium tumefaciens transient transformation assay (ATTA): co-expression with Cf-4 in Nicotiana benthamiana leaves; assay type: in vivo; conditions: N. benthamiana, three cell density ratios 0.5:1, 1:1, 2:1
Description: The Agrobacterium tumefaciens transient transformation assay (ATTA) was used for the transient co-expression into leaves of Nicotiana benthamiana of Cf-4 with the WT-CfAvr4 and the mutants thereof tested in this study. Briefly, N. benthamiana plants were grown in a growth chamber with 16 h of artificial light and 70% humidity, at 25°C for 4 weeks. The true mature form of the WT-CfAvr4 (i.e. between Lys30-Gln115) and of the mutants thereof were singly cloned into the binary expression vector pICH47742 downstream of the PR1A signal sequence of Nicotiana tabacum for targeted secretion into the apoplast, and under the control of CaMV 35S promoter and NOS terminator. The tomato Cf-4 was cloned into pMOG800 as descripted before. Binary vector plasmids were transformed into A. tumefaciens strain GV3101 by electroporation. For the ATTA assay, agrobacteria transformed with pMOG800:Cf-4 was grown in 10mL LB-mannitol medium (LB medium with 10 g/L mannitol) amended with 50 μg/mL kanamycin and 25 μg/mL rifampicin, whereas agrobacteria transformed with pICH47742:WT-CfAvr4 or pICH4774:CfAvr4-mutants were grown in LB-mannitol amended with 100 μg/mL carbenicillin and 25 μg/mL rifampicin. All cultures were incubated at 28°C for 2 days, after which period they were pelleted at 2800g for 15 min, re-suspended in MMAi medium (5 g/L Murashige and Skoog basal salts, 20 g/L sucrose, 10 mM MES, and […]) at an optical cell density (A600) of 2.0, and further incubated for 2–4 h at room temperature. Agroinfiltrations were performed by mixing agrobacteria containing pMOG800:Cf-4 with agrobacteria containing pICH47742_WT-CfAvr4 or pICH47742:CfAvr4-mutants at three different ratios of optical cell densities, i.e. A6000.5:A6001.0, A6000.5:A6000.5, and A6000.5:A6000.25 of. The mixture of agrobacteria was infiltrated into the leaves of N. benthamiana plants using a 1 mL syringe and the induction of an HR in the infiltrated leaf sectors was evaluated at 5 days post-infiltrations. Control infiltrations were made using only the pMOG800:Cf-4 transformed agrobacteria and the agrobacteria containing pICH47742:CfAvr4 or the mutants thereof without mixing the two cultures, at cell densities of A6000.25, A6000.5, and A6001.0.

Row | Molecule | Cf-4-mediated HR after protein infiltration (Cf-4 immune receptor; 5 μg/ml) | Cf-4-mediated HR after protein infiltration (Cf-4 immune receptor; 10 μg/ml) | Cf-4-mediated HR after protein infiltration (Cf-4 immune receptor; both 5 μg/ml and 10 μg/ml) | morphology of hyphae after chitinase treatment [1] | protection of fungal hyphae against chitinases, fungal growth [1] | Stability (Subtilisin assay) (subtilisin) | susceptibility to proteolytic degradation by subtilisin (subtilisin) | increase in the Kd relative to WT-CfAvr4 [2] | HR on transient co-expression with Cf-4 (Cf-4) | effect of the mutation on binding to (GlcNAc)6 ([2]; compared with WT-CfAvr4)
1 | B1 | weak HR response | elicited an HR | only partially trigger an HR | signs of osmotic injuries such as swollen segments and coagulated cytoplasm; also recorded: signs of osmotic injuries, such as swollen segments and coagulated cytoplasm | enable fungal growth to levels comparable to those of the WT-CfAvr4 | PU | vulnerable to proteolytic degradation; also recorded: decreased intensity of this band | ~ 20 fold | strong and similar in intensity HR | 
2 | B2 |  |  | strong and equal in intensity HR; also recorded: full HR; also recorded: strong and equally in intensity necrosis | signs of osmotic injuries such as swollen segments and coagulated cytoplasm; also recorded: signs of osmotic injuries, such as swollen segments and coagulated cytoplasm | enable fungal growth to levels comparable to those of the WT-CfAvr4 | S | as resilient to proteolysis as the WT-CfAvr4 | ~ 20 fold | full HR; also recorded: strong and similar in intensity HR | 
3 | B3 |  |  | strong and equal in intensity HR; also recorded: full HR; also recorded: strong and equally in intensity necrosis |  | essentially failed to protect the fungal hyphae against chitinases; also recorded: fail to protect the fungal hyphae | S | as resilient to proteolysis as the WT-CfAvr4 |  | full HR; also recorded: strong and similar in intensity HR | abolished all detectable binding
